{"source": "paper doi:10.1101/2025.03.30.646141v1", "key": {"purified protein [1]": {"substrate": "NC[C@@H]1O[C@H](O[C@H]2[C@@H](O)[C@H](O[C@@H]3[C@@H](O)[C@H](N)C[C@H](N)[C@H]3O[C@H]3O[C@H](CO)[C@@H](O)[C@H](O)[C@H]3N)O[C@@H]2CO)[C@H](N)[C@@H](O)[C@@H]1O", "assay": "purified protein", "conditions": "100 µM MgATP, Tris buffer pH 7.5, 25 °C"}, "purified protein [2]": {"substrate": "NC[C@H]1O[C@H](O[C@H]2[C@H](O)[C@@H](O[C@H]3O[C@H](CO)[C@@H](O)[C@H](N)[C@H]3O)[C@H](N)C[C@@H]2N)[C@H](N)[C@@H](O)[C@@H]1O", "assay": "purified protein", "conditions": "100 µM MgATP, Tris buffer pH 7.5, 25 °C"}, "purified protein [3]": {"substrate": "NC[C@@H]1O[C@H](O[C@H]2[C@@H](O)[C@H](O[C@@H]3[C@@H](O)[C@H](N)C[C@H](N)[C@H]3O[C@H]3O[C@H](CN)[C@@H](O)[C@H](O)[C@H]3N)O[C@@H]2CO)[C@H](N)[C@@H](O)[C@@H]1O", "assay": "purified protein", "conditions": "100 µM MgATP, Tris buffer pH 7.5, 25 °C"}, "purified protein [4]": {"substrate": "NC[C@H]1O[C@H](O[C@H]2[C@H](O)[C@@H](O[C@H]3O[C@H](CO)[C@@H](O)[C@H](N)[C@H]3O)[C@H](N)C[C@@H]2N)[C@H](O)[C@@H](O)[C@@H]1O", "assay": "purified protein", "conditions": "100 µM MgATP, Tris buffer pH 7.5, 25 °C"}, "purified protein [5]": {"substrate": "NC[C@H]1O[C@H](O[C@H]2[C@H](O[C@@H]3O[C@H](CO)[C@@H](O)[C@H]3O)[C@@H](O)[C@H](N)C[C@@H]2N)[C@H](N)[C@@H](O)[C@@H]1O", "assay": "purified protein", "conditions": "100 µM MgATP, Tris buffer pH 7.5, 25 °C"}, "steady-state kinetics [6]": {"substrate": "Nc1nc2c(ncn2[C@@H]2O[C@H](COP(=O)(O)OP(=O)(O)OP(=O)(O)O)[C@@H](O)[C@H]2O)c(=O)[nH]1", "assay": "steady-state kinetics", "format": "biochemical, Pseudomonas aeruginosa", "conditions": "100 µM kanamycin A, Tris buffer pH 7.5, Mg2+, 25 °C"}, "steady-state kinetics [7]": {"substrate": "Nc1ncnc2c1ncn2[C@@H]1O[C@H](COP(=O)(O)OP(=O)(O)OP(=O)(O)O)[C@@H](O)[C@H]1O", "assay": "steady-state kinetics", "format": "biochemical, Pseudomonas aeruginosa", "conditions": "100 µM kanamycin A, Tris buffer pH 7.5, Mg2+, 25 °C"}}}
{"protein": "APH(3’)-IIb WT (Pseudomonas aeruginosa PAO1) (protein) MHDAATSMPPQAPSTWADYLAGYRWRGQGEGCSAATVHRLEAARRPTLFVKQEVLSAHAELPAEIARLRWLHGAGIDCPQVLNETQSDGRQWLLMSAVPGDTLSALAQRGELEPERLVRLVAAALRRLHDLDPAACPFDHRLERRLDTVRQRVEAGLVDEADFDDDHRGRSATELYRLLLDRRPAVEDLVVAHGDACLPNLLAEGRRFSGFIDCGRLGVADRHQDLALAARDIEAELGAAWAEAFLVEYGGDIDGERLAYFRLLDEFF", "values": [{"measurement": "Km", "setting": "purified protein [1]", "value": "0.50 ± 0.10", "unit": "µM"}, {"measurement": "kcat", "setting": "purified protein [1]", "value": "2.64 ± 0.14", "unit": "s⁻¹"}, {"measurement": "Km", "setting": "purified protein [2]", "value": "0.19 ± 0.07", "unit": "µM"}, {"measurement": "kcat", "setting": "purified protein [2]", "value": "2.13 ± 0.20", "unit": "s⁻¹"}, {"measurement": "Km", "setting": "purified protein [3]", "value": "0.27 ± 0.10", "unit": "µM"}, {"measurement": "kcat", "setting": "purified protein [3]", "value": "1.98 ± 0.17", "unit": "s⁻¹"}, {"measurement": "Km", "setting": "purified protein [4]", "value": "0.21 ± 0.10", "unit": "µM"}, {"measurement": "kcat", "setting": "purified protein [4]", "value": "0.58 ± 0.04", "unit": "s⁻¹"}, {"measurement": "Km", "setting": "purified protein [5]", "value": "1.17 ± 0.26", "unit": "µM"}, {"measurement": "Km", "setting": "steady-state kinetics [6]", "value": 320, "unit": "µM"}, {"measurement": "kcat", "setting": "steady-state kinetics [6]", "value": 0.41, "unit": "s⁻¹"}, {"measurement": "Km", "setting": "steady-state kinetics [7]", "value": 3, "unit": "µM"}, {"measurement": "kcat", "setting": "steady-state kinetics [7]", "value": 0.38, "unit": "s⁻¹"}]}
